One block for each binder: values may come before it.
What was measured:
Test in all cases: holdup assay
Design in all cases: key: below the threshold = too weak to quantify, mostly under pKd 3.1 to 4
[1] = target: ARHGEF12, Q9NZN5-2
[2] = target: T1, CARD11, Q9BXL7
T1 sequence (Q9BXL7 662-765, limits assumed, looked up): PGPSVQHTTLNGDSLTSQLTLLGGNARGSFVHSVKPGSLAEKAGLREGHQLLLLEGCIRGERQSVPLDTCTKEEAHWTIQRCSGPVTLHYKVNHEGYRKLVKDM

[3] = target: T2, DLG3_2, Q92796
T2 sequence (Q92796 221-321, limits assumed, looked up): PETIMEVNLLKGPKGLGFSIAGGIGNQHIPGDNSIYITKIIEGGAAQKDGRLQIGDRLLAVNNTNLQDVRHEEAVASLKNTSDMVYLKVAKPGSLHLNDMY

[4] = target: T3, DLG3_3, Q92796
T3 sequence (Q92796 374-475, limits assumed, looked up): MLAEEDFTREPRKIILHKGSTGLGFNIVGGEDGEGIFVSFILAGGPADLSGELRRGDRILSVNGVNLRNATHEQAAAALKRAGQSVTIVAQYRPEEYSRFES

[5] = target: FRMPD2_2, Q68DX3
FRMPD2_2, Q68DX3, sequence (Q68DX3 944-1038): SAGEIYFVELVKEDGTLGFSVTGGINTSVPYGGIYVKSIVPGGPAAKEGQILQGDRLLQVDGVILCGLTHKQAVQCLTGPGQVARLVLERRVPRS

[6] = target: GIPC2, Q8TF65
GIPC2, Q8TF65, sequence (Q8TF65 112-203): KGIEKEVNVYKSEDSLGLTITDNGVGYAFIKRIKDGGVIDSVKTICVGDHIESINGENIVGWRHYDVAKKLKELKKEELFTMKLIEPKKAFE

[7] = target: T4, GRIP1_2, Q9Y3R0
T4 sequence (Q9Y3R0 145-248, limits assumed, looked up): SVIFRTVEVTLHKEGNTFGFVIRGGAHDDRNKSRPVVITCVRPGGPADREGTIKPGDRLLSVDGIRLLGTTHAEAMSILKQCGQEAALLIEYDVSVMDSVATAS

[8] = target: GRIP2_4, Q9C0E4
GRIP2_4, Q9C0E4, sequence (Q9C0E4 446-548): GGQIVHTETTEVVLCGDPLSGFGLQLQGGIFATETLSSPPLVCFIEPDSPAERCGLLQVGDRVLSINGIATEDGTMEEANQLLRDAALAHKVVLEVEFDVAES

[9] = target: GRIP2_5, Q9C0E4
GRIP2_5, Q9C0E4, sequence (Q9C0E4 544-642): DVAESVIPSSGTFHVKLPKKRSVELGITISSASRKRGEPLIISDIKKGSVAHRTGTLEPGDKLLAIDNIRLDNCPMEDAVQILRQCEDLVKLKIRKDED

[10] = target: GRIP2_7, Q9C0E4
GRIP2_7, Q9C0E4, sequence (Q9C0E4 934-1023): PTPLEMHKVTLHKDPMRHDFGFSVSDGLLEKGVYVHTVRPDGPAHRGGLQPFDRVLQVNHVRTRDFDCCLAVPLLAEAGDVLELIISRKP

[11] = target: IL16_4, Q14005
IL16_4, Q14005, sequence (Q14005 1229-1329): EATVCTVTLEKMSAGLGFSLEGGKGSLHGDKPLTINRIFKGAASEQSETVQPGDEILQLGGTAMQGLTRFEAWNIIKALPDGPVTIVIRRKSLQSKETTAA

[12] = target: Inadl_4, Q8NI35
Inadl_4, Q8NI35, sequence (Q8NI35 547-651): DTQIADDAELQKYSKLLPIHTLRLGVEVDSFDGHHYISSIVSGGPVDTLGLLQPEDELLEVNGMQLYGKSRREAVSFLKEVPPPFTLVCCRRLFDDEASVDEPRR

[13] = target: T5, LNX2_3, Q8N448
T5 sequence (Q8N448 463-564, limits assumed, looked up): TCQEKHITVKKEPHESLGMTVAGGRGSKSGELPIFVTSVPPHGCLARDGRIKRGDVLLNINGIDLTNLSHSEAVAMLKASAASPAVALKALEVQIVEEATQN

[14] = target: T6, MPP2, Q14168
T6 sequence (Q14168 180-250, limits assumed, looked up): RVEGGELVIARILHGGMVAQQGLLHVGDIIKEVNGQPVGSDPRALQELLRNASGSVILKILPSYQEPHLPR

[15] = target: T7, MPP6, Q9NZW5
T7 sequence (Q9NZW5 125-219, limits assumed, looked up): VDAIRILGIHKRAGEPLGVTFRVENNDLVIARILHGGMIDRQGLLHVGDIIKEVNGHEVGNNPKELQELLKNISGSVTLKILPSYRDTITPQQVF

[16] = target: T8, MPP7, Q5T2T1
T8 sequence (Q5T2T1 134-230, limits assumed, looked up): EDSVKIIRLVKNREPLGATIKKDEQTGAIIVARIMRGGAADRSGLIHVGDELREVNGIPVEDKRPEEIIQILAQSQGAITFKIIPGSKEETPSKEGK

[17] = target: NHERF4_1, Q86UT5-2
NHERF4_1, Q86UT5-2, sequence (Q86UT5 other isoform, or with tags, fused parts or gaps): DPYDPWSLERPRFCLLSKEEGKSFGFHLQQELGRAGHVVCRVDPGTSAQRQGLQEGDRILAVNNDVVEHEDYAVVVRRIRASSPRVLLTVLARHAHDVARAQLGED

[18] = target: NOS1, P29475
NOS1, P29475, sequence (P29475 9-101): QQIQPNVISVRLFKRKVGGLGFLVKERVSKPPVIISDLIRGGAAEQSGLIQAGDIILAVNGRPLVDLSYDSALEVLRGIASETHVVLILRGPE

[19] = target: PDLIM1, O00151
PDLIM1, O00151, sequence (O00151 1-87): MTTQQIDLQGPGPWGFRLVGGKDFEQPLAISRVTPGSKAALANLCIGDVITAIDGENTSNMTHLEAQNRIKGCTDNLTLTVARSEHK

[20] = target: PTPN3, P26045
PTPN3, P26045, sequence (P26045 505-587): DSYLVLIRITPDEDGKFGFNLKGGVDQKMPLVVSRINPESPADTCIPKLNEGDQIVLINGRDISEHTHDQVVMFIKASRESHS

[21] = target: T9, RHPN1, Q8TCX5
T9 sequence (Q8TCX5 508-602, limits assumed, looked up): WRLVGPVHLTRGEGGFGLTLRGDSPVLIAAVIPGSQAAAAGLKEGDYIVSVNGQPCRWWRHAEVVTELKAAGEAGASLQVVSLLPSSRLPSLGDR

[22] = target: SCRIB_1, Q14160
SCRIB_1, Q14160, sequence (Q14160 718-814): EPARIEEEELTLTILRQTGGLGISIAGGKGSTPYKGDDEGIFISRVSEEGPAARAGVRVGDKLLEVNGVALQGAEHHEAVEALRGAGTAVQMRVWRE

[23] = target: SCRIB_3, Q14160
SCRIB_3, Q14160, sequence (Q14160 999-1103): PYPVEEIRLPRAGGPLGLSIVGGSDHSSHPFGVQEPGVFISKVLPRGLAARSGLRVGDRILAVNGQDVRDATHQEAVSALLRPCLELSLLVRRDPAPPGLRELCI

[24] = target: T10, SIPA1L2, Q9P2F8
T10 sequence (Q9P2F8 945-1036, limits assumed, looked up): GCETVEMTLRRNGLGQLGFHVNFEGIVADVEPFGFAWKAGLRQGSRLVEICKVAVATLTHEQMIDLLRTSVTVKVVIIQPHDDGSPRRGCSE

[25] = target: T11, SNTG2, Q9NY99
T11 sequence (Q9NY99 68-166, limits assumed, looked up): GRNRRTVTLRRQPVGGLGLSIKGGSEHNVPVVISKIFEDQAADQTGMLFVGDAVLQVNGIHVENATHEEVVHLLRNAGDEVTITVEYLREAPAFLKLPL

[26] = target: TJP2_1, Q9UDY2
TJP2_1, Q9UDY2, sequence (Q9UDY2 24-128): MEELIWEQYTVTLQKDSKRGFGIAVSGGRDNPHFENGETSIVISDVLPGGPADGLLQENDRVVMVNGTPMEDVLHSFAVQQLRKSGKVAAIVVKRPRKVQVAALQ

[27] = plain residues with an end cap or a label only (N-terminal biotin on a linker: ado-ado)
[28] = modified: phospho on S at position -3 from the C-terminal residue

ARHGEF12, Q9NZN5-2, sequence (Q9NZN5 other isoform, or with tags, fused parts or gaps): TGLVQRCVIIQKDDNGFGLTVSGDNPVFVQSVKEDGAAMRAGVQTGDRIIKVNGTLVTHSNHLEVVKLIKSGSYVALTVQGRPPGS

Binder: TMQMSLKDLL [GLA, P06280]
pKd [1, 27]: below the threshold | pKd [2, 27]: below the threshold | pKd [3, 27]: below the threshold | pKd [4, 27]: 3.65 | pKd [5, 27]: below the threshold | pKd [6, 27]: 3.62 | pKd [7, 27]: 3.5 | pKd [8, 27]: below the threshold | pKd [9, 27]: 3.51 | pKd [10, 27]: below the threshold | pKd [11, 27]: 3.69 | pKd [12, 27]: below the threshold | pKd [13, 27]: below the threshold | pKd [14, 27]: below the threshold | pKd [15, 27]: below the threshold | pKd [16, 27]: below the threshold | pKd [17, 27]: 3.99 | pKd [18, 27]: 3.73 | pKd [19, 27]: below the threshold | pKd [20, 27]: 4.07 | pKd [21, 27]: 3.79 | pKd [22, 27]: below the threshold | pKd [23, 27]: below the threshold | pKd [24, 27]: below the threshold | pKd [25, 27]: below the threshold | pKd [26, 27]: below the threshold

Binder: PDGEMMEVLI [AMOTL1, Q8IY63]
pKd [1, 27]: below the threshold | pKd [2, 27]: below the threshold | pKd [3, 27]: 4.06 | pKd [4, 27]: below the threshold | pKd [5, 27]: below the threshold | pKd [6, 27]: below the threshold | pKd [7, 27]: below the threshold | pKd [8, 27]: below the threshold | pKd [9, 27]: below the threshold | pKd [10, 27]: below the threshold | pKd [11, 27]: below the threshold | pKd [12, 27]: below the threshold | pKd [13, 27]: below the threshold | pKd [14, 27]: below the threshold | pKd [15, 27]: below the threshold | pKd [16, 27]: 4.24 | pKd [17, 27]: below the threshold | pKd [18, 27]: 4.01 | pKd [19, 27]: below the threshold | pKd [20, 27]: below the threshold | pKd [21, 27]: below the threshold | pKd [22, 27]: below the threshold | pKd [23, 27]: 3.74 | pKd [24, 27]: below the threshold | pKd [25, 27]: below the threshold | pKd [26, 27]: below the threshold

Now from value to binder:

pKd [1, 27]: below the threshold | pKd [2, 27]: below the threshold | pKd [3, 27]: below the threshold | pKd [4, 27]: below the threshold | pKd [5, 27]: below the threshold | pKd [6, 27]: below the threshold | pKd [7, 27]: below the threshold | pKd [8, 27]: below the threshold | pKd [9, 27]: below the threshold | pKd [10, 27]: below the threshold | pKd [11, 27]: below the threshold | pKd [12, 27]: below the threshold | pKd [13, 27]: below the threshold | pKd [14, 27]: below the threshold | pKd [15, 27]: 3.61 | pKd [16, 27]: below the threshold | pKd [17, 27]: below the threshold | pKd [18, 27]: below the threshold | pKd [19, 27]: below the threshold | pKd [20, 27]: below the threshold | pKd [21, 27]: below the threshold | pKd [22, 27]: below the threshold | pKd [23, 27]: below the threshold | pKd [24, 27]: below the threshold | pKd [25, 27]: below the threshold | pKd [26, 27]: below the threshold
Binder: LETREPTNTL [GRIP1, Q9Y3R0]

pKd [1, 28]: 3.79 | pKd [2, 28]: below the threshold | pKd [3, 28]: below the threshold | pKd [4, 28]: below the threshold | pKd [5, 28]: below the threshold | pKd [6, 28]: below the threshold | pKd [7, 28]: below the threshold | pKd [8, 28]: below the threshold | pKd [9, 28]: below the threshold | pKd [10, 28]: below the threshold | pKd [11, 28]: below the threshold | pKd [12, 28]: below the threshold | pKd [13, 28]: below the threshold | pKd [14, 28]: below the threshold | pKd [15, 28]: below the threshold | pKd [16, 28]: below the threshold | pKd [17, 28]: below the threshold | pKd [18, 28]: below the threshold | pKd [19, 28]: below the threshold | pKd [20, 28]: 4.51 | pKd [21, 28]: 4.34 | pKd [22, 28]: 4.07 | pKd [23, 28]: 4.35 | pKd [24, 28]: below the threshold | pKd [25, 28]: 4.76 | pKd [26, 28]: 3.57
Binder: RRVRKLPSTTL [RPS6KA1_-3P, Q15418]

pKd [1, 27]: below the threshold | pKd [2, 27]: below the threshold | pKd [3, 27]: 4.01 | pKd [4, 27]: below the threshold | pKd [5, 27]: below the threshold | pKd [6, 27]: below the threshold | pKd [7, 27]: below the threshold | pKd [8, 27]: below the threshold | pKd [9, 27]: below the threshold | pKd [10, 27]: below the threshold | pKd [11, 27]: below the threshold | pKd [12, 27]: below the threshold | pKd [13, 27]: below the threshold | pKd [14, 27]: 3.77 | pKd [15, 27]: below the threshold | pKd [16, 27]: 3.59 | pKd [17, 27]: below the threshold | pKd [18, 27]: below the threshold | pKd [19, 27]: below the threshold | pKd [20, 27]: 3.54 | pKd [21, 27]: below the threshold | pKd [22, 27]: below the threshold | pKd [23, 27]: below the threshold | pKd [24, 27]: below the threshold | pKd [25, 27]: below the threshold | pKd [26, 27]: below the threshold
Binder: FEEEAEEEVA [TUBB4B, P68371]

Source: PMC9482650, “Quantitative fragmentomics allow affinity mapping of interactomes” (Nature Communications, 2022)
